This note sets out measurements from patent US20180086841A1 (Merck Sharp & Dohme, published 2018).

Experiment [1] deals with T1, Macaca mulatta CD27 (mmCD27) (Macaca mulatta (rhesus) / Macaca …, UniProt P26842 21-260 (human entry)).
T1 chain: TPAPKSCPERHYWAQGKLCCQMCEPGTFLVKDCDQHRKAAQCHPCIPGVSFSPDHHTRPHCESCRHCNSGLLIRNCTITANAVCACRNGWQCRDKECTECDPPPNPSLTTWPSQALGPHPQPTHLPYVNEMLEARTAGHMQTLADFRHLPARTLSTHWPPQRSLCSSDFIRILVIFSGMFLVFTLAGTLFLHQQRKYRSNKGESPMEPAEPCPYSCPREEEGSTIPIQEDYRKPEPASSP
The experiment in a line: cell-based or functional assay.

Experiment [2] concerns the target T2, human CD27 (human, UniProt P26842 21-260). The experiment in a line: cell-based or functional assay.
For experiment [3], the target named is T3, human CD27 (A59T) (human, UniProt P26842 21-260). The experiment in a line: cell-based or functional assay.
In experiment [4] the target is T1, Macaca mulatta CD27 (mmCD27). The experiment in a line: cell-based or functional assay.
Experiment [5] concerns the target T2, human CD27. The experiment in a line: cell ELISA on human CD27 CHOK1 cells, hIgG1.
Method: Purified antibodies were assayed for binding to human CD27 expressing CHOK1 cells using a cell-based ELISA format. Human CD27 expressing CHOK1 cells were plated in 96-well tissue-culture plates in 50 μl of DMEM/F12, 10% BCS (bovine calf serum) (CHO-K1 media). Cells were plated at either 2×10⁴ cells/well two days prior to the assay or 4×10⁴ cells/well one day prior to the assay. Media was removed from the wells prior to the assay followed by incubation of mAb in 100 μL fresh culture medium at a starting concentration of 10 μg/mL and 8 step 1:5 serial dilutions (hIgG4 antibodies) or starting concentration of 50 μg/mL and 8 step 1:5 serial dilutions (hIgG1 antibodies). The antibodies were incubated for 30-60 minutes at room temperature and washed 3 times with PBS/0.05% Tween 20 using a cell ELISA washing protocol on the Biotek EL405x Select CW plate washer.
For experiment [6], the target named is T2, human CD27. The experiment in a line: cell ELISA on CD27-transfected CHOK1 cells, n=2.
Method: (§1) Purified antibodies were assayed for binding to human CD27 expressing CHOK1 cells, human CD27 A59T expressing CHOK1 cells, and cross-reactivity to rhesus CD27 expressing CHOK1 cells using a cell-based ELISA format. Human CD27 expressing CHOK1 cells, human CD27 A59T expressing CHOK1 cells, and rhesus CD27 expressing CHOK1 cells were plated in 96-well tissue-culture plates in 50 μl of DMEM/F12, 10% BCS and gentamycin (CHO-K1 media). Cells were plated at either 2×10⁴ cells/well two days prior to the assay or 4×10⁴ cells/well one day prior to the assay. Media was removed from the wells prior to the assay followed by incubation of mAb in 100 μL fresh culture medium at a starting concentration of 10 μg/mL and 8 step 1:4 serial dilutions. The antibodies were incubated for 30-60 minutes at room temperature and washed 3 times with PBS/0.05% Tween 20 using a cell ELISA washing protocol on the Biotek EL405x Select CW plate washer. […] Assay plates were washed as above and developed with TMB and stopped with TMB stop solution (KPL cat#50-85-06) or 0.1N phosphoric acid. The plate was read on a Molecular Devices VersaMax plate reader at 450 nm/650 nm. Titration curves were used to determine the half-maximal effective concentration (EC₅₀).
Experiment [7] concerns the target T3, human CD27 (A59T). Kind of experiment: cell ELISA on CD27-transfected CHOK1 cells, n=2. A general note: An ELISA detects its analyte on a solid surface through an enzyme-linked reagent.
Method: as §1
The target of experiment [8] is T1, Macaca mulatta CD27 (mmCD27). The experiment in a line: cell ELISA on CD27-transfected CHOK1 cells, n=2.
Method: as §1
For experiment [9], the target named is T2, human CD27. The experiment in a line: flow cytometry MFI, CD4+ T cells of human PBMC, N=2 donors. In general terms: Flow cytometry measures light scatter and fluorescence of single cells or particles in a stream.
Method: Labeled cells were washed by re-suspending them in 150 ul of staining buffer (SB) followed by centrifugation at 300 g for 5 minutes. Cells were then resuspended in 100 ul of SB containing primary anti-CD27 antibodies at various concentrations, incubated in the dark at 4° C. for 30 minutes, followed by washing and centrifugation steps as previously described. […] Cells were incubated for 30 minutes at 4° C. in the dark, followed by washing and centrifugation steps. Next, cells were stained with a cocktail of phenotypic antibodies for surface markers (CD3, CD4, CD8, CD11b) and incubated for 30 minutes at 4° C. in the dark, followed by washing and centrifugation steps. […] Samples were acquired in a LSR-Fortessa flow cytometer (BD Biosciences) using the high throughput sampler and data analyzed by FlowJo software (Tree Star Inc).
Experiment [10] has as its target T2, human CD27. Kind of experiment: flow cytometry MFI, CD8+ T cells of human PBMC, N=2 donors.
Experiment [11] has as its target T2, human CD27. The experiment in a line: flow cytometry MFI, CD4+ T cells in human peripheral blood, n=4.
Method: (§2) Upon receipt, blood was visually confirmed to be devoid of obvious signs of lysis or clotting. […] Red blood cells (RBCs) were then lysed by incubation with 1.7 mL of Ammonium-Chloride-Potassium red blood cell lysing solution (Life Technologies, catalog no. A10492-01) for 5 minutes. The lysis step was repeated once more with 2 ml of ACK lysing solution, and then again with 300 ml of ACK lysing solution. Cells were then washed after adding 1.7 ml of phosphate buffered saline (PBS) (Hyclone, catalog no. SH30028.02). […] After a final wash in SB, samples were acquired in a LSR-Fortessa flow cytometer (BD Biosciences) using the high throughput sampler and data analyzed by FlowJo software (Tree Star Inc).
The target of experiment [12] is T2, human CD27. Kind of experiment: flow cytometry MFI, CD8+ T cells in human peripheral blood, n=4.
Method: as §2
Experiment [13] concerns the target T1, Macaca mulatta CD27 (mmCD27). Kind of experiment: flow cytometry MFI, CD4+ T cells in rhesus peripheral blood, n=4.
Method: as §2
For experiment [14] the target is unchanged. Kind of experiment: flow cytometry MFI, CD8+ T cells in rhesus peripheral blood, n=4.
Method: as §2
Experiment [15] deals with T4, human CD27-Fc fusion protein (human, UniProt P26842 21-191).
T4 construct: not shown: Fc part
The experiment in a line: SPR Biacore T200, CD27-Fc amine-coupled, antibody injected, 1:1 Langmuir fit.

For experiment [16], the target named is T5, human CD27 A59T-Fc fusion protein (human, UniProt P26842 21-191).
T5 construct: not shown: Fc part
T5 chain: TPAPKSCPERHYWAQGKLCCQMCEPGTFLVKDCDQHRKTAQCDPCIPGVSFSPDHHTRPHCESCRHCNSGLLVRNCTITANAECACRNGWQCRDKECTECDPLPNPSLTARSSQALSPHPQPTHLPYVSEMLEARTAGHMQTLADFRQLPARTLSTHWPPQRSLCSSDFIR
Described as above.

Experiment [17] addresses T6, rhesus macaque CD27-Fc fusion protein (rhesus macaque, UniProt P26842 21-191 (human entry), limits assumed).
T6 construct: not shown: Fc part
T6 chain: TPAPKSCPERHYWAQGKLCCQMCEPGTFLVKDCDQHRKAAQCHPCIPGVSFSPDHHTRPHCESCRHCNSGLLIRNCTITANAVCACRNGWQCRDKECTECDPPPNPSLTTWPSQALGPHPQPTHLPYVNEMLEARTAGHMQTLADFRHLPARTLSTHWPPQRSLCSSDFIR
The experiment is described as above.

Experiment [18] concerns the target T7, His9G-tagged human CD27 recombinant protein (human, UniProt P26842 21-191).
T7 construct: In-house, transient transfection of HEK293 cells; also called Human CD27/His
The experiment in a line: SPR Biacore 4000, antibody captured on anti-human Fc, His9G-tagged CD27 injected, 1:1 fit.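 Note: Double-referenced SPR (blank anti-Fc surface and buffer injection subtracted), KD derived from association and dissociation rate constants, with human and cynomolgus CD27 as analytes.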 A general note: Surface plasmon resonance follows binding to a sensor surface in real time, without labels.
From the text: (§3) Flow cell spots modified with anti-human Fc antibody but lacking CD27 antibodies were used as reference. […] The chip surface was regenerated with a 30 second injection of 3M MgCl₂ after each injection cycle.
(§4) Data were double referenced by subtracting the response from a blank surface and that from a buffer injection and used for analyzing the rate constant of association (kₐ) and dissociation (kd), and the equilibrium dissociation constant KD. The resulting data sets were fitted with a Langmuir 1:1 binding model using the Biacore 4000 BIAevaluation software, version 1.0 (GE/Biacore).

In experiment [19] the target is T8, His9G-tagged cynomolgus CD27 recombinant protein (cynomolgus, limits assumed).
T8 construct: In-house, transient transfection of HEK293 cells; also called Cyno CD27/His
T8 chain: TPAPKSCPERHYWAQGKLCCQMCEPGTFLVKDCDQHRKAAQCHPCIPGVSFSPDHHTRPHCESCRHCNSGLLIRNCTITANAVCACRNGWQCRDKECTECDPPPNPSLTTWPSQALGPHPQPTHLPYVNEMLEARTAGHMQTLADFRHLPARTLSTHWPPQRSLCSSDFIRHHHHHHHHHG
The experiment is described as above.
From the text: as §3, §4

Experiment [20] has as its target T1, Macaca mulatta CD27 (mmCD27). Kind of experiment: flow cytometry on transiently transfected CHO-K1 cells.
Experiment [21] concerns the target T2, human CD27. The experiment is described as above.
From the text: HsCD27 and MmCD27 were expressed on CHO-K1 by transient transfection.

B1: 131AVH6VL6-hIgG1 (antibody)
heavy: not shown
light: EIVLTQSPATLSLSPGERATLSCSASSSVSYMHWYQQKPGQAPKRWIYDTSKLASGVPARFSGSGSGTDYSLTISSLEPEDFAVYYCQQWNSYPFTFGQGTKLEIKRTVAAPSVFIFPPSDEQLKSGTASVVCLLNNFYPREAKVQWKVDNALQSGNSQESVTEQDSKDSTYSLSSTLTLSKADYEKHKVYACEVTHQGLSSPVTKSFNRGEC
notes: also called hCD27.131A VH6VL6 huIgG1
Regarding B1, the “NF-κB-luciferase reporter assay, potency against human CD27” value in experiment [1] is around 7 fold. Also, the “NF-κB-luciferase reporter assay, EC50” value came to 2.22 nM with human CD27 [2], 4.72 nM with human CD27 (A59T) [3] and 0.29 nM in experiment [4]. Moreover, the “NF-κB-luciferase reporter assay, Emax” value was determined as 2.96 fold change with human CD27 [2], 3.22 fold change in the experiment with human CD27 (A59T) [3] and 2.11 fold change in experiment [4]. Also, the concentration for a half-maximal effect (EC50) came out at 0.155 nM with human CD27 [5]; 0.072 nM with human CD27 [6]; 0.097 nM with human CD27 (A59T) [7]; 0.054 nM in experiment [8]; 0.137 nM in the experiment with human CD27 [9]; 0.123 nM with human CD27 [10]. The EC50 in the experiment with human CD27 [11] stood at 0.32 nM; with human CD27 [12], 0.3 nM; in [13] it was 0.17 nM; in experiment [14], 0.22 nM. Besides, the Kd in experiment [15] was found to be 5.1 nM; in experiment [16], 7.3 nM; in experiment [17] it was 4.3 nM; in experiment [18], 65.2 nM; in experiment [19], 51.5 nM.

B2: hCD27.15-c4 (antibody, human IgG4 S228P, kappa, V domains shown)
VH: EVRLQQSGADLVKPGASVKLSCTASGFIIKATYMHWVRQRPEQGLEWIGRIDPANGETKYDPKFQVKATITADTSSSTAYLQLNSLTSDDTAVYYCARYAWYFDVWGAGTTVTVSS
VL: DIQMTQSPASLSASVGDTVTITCRASENIYSFLAWYHQKQGRSPQLLVYHAKTLAEGVPSRFSGSGSGTQFSLKINSLQAEDFGSYYCQHYYGSPLTFGAGTKLEVKR
notes: also called hCD27.15 (chimeric c-4); C4-hCD27.15 chimeric antibody
Consider B2, for which the figures for the binding result (in [20]; with human CD27 [21]) were “no binding” and “binds”, respectively.

The EC50 is the concentration at which the effect is half-maximal. Higher therefore signals weaker potency. A word on the Kd: it is the free concentration of one partner at which half of the binding sites on the other are occupied at equilibrium, for simple one-to-one binding.
